Where no end group is shown, it is not given here. [ ]: non-standard residue; d: D form. Aib = CC(C)(N)C(=O)O
Biological target: T1, lecithin:cholesterol acyltransferase (LCAT), purified from human plasma (human, UniProt P04180 25-440)
T1 sequence (looked up): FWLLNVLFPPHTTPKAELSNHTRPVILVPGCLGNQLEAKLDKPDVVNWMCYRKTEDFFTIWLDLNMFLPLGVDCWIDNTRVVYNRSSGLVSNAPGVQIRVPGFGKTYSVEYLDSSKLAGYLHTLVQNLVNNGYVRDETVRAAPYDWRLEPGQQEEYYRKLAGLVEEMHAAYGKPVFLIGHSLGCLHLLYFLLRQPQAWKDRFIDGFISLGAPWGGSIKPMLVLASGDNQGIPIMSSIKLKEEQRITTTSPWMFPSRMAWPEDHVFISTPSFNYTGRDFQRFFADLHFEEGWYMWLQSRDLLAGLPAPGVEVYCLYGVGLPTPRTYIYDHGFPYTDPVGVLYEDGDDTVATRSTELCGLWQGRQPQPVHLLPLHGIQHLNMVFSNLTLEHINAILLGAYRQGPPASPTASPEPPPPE
Assay: cell-based or functional assay

B1: peptide 78 (peptide)
peptide: PVLDEFRDKLNE[Aib]LEALKQKLK
ACTIVITY (%) LCAT: 9%

Source: US6716816
